Biological target: SARS-CoV-2 spike SΔ21 displayed on VSV-eGFP-SARS-CoV-2-SΔ21 particles (SARS-CoV-2 isolate Wuhan-Hu-1) (UniProt P0DTC2)
Assay: cell-based or functional assay

mAb S309 (antibody)
EC50, neutralization of VSV-SARS-CoV-2-SΔ21 (GRNT, Vero E6 cells): 0.067 µg/mL

From patent US20230346919A1
